In patent US20150010572A1 (SAMSUNG ELECTRONICS, published 2015):
Positions count from the first letter of the chain named.

B1: SAIT-Ang-2-AB-m8B3 (antibody, V domains shown)
VH: DVQLQESGPGLVKPSQSLSLSCTVTGYSIASDYAWNWIRQFPGNKVEWMGYINYRGNTDYNPSLKSRSSINRDTSKNQFFLQLNSVTTGDTATYYCARGNFEGAMDYWGQGTSVTVSS
VL: TIVMTQTPKFLLVSAGDRITITCKASQSVSNDVAWYQQKPGQSPKLLIYYASNRYPGVPDRFTGSGYGTDFTFTISTVQAEDLAVYFCQQDYTSPWTFGGGTELEIK
notes: also called KCLRF-BP-00293
B2: SAIT-Ang-2-AB-m2E7 (antibody, V domains shown)
VH: DLQLQESGPGLVKPSQSLSLTCTVTGYSITSDYAWNWIRQFPGNKLEWMGYISYSGSTSYNPSLKSRISITRDTSKNQFFLQLNSLTTEDTATYYCARGDYGNYVGPMDYWGQGTSVTVSS
VL: B1 VL with T1S, I19V, Q37R, P56T, T93S, W96L, G100A, G101R, E103K, I106L
notes: also called KCLRF-BP-00294

Key:
Test in all cases: ELISA, antibody coated, 250 ng FLAG-tagged mutant Ang-2, anti-FLAG-HRP, OD450 relative to native Ang-2
[1] = target: T1, mutant Ang-2 protein, N467 substituted with alanine (FLAG-tagged at N-terminal) (human, UniProt O15123 281-496, limits assumed)
T1 chain: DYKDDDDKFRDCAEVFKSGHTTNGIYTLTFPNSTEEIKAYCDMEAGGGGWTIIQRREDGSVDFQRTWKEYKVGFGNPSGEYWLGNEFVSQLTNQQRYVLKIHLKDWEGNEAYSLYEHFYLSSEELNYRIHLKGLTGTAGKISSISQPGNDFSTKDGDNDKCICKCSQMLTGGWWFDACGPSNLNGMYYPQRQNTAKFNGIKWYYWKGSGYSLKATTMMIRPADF
Description: (§1) Each well of a 96-well MaxiSorp™ flat-bottom plate (Nunc) was coated with 50 ul (microliter) of 1000 nM antibodies (Example 2). Then, the plate was washed five times with a 0.05% (v/v) Tween-20 containing PBS (PBST) and blocked with a 1% (v/v) BSA containing PBS at a room temperature for 2 hours. 250 ng of each mutant Ang-2 protein obtained by substituting S417, Q418, P419, N421, 1434, D448, A449, P452, Y460, N467, K468, or F469 residue of Ang-2 protein tagged with a FLAG sequence ([…], Sigma) at its N-terminal with alanine was added to each well of the plate, which was then allowed to react at a room temperature for 2 hours.
(§2) The plate was washed five times with a 0.05% (v/v) Tween-20 containing PBS, reacted with an anti-FLAG antibody (SIGMA) conjugated with HRP which was diluted in a 1% (v/v) BSA containing PBS at a ratio of 1:5,000 (v/v) at a room temperature for 1 hour, and washed five times with a 0.1% (v/v) Tween-20 containing PBS.
(§3) Finally, 50 ul of TMB substrates (Cell signaling) was added to each well of the plate to induce color development reaction at a room temperature for 3 min. and the reaction was ceased by the addition of 50 ul of Stop solution (Cell signaling) and then, OD450 values were measured on a plate reader (Molecular Devices). By comparing binding affinities with mutated Ang-2 to those of unmutated Ang-2, each epitope of Ang-2 antibodies was identified. The thus obtained measurement results of the binding affinities (%) of mutant Ang-2 against the binding affinity of the native Ang-2 are shown in the following Table 9.

[2] = target: T2, mutant Ang-2 protein, P452 substituted with alanine (FLAG-tagged at N-terminal) (human, UniProt O15123 281-496, limits assumed)
T2 chain: T1 chain with P180A, A195N
Description: as §1, §2, §3

[3] = target: T3, mutant Ang-2 protein, Y460 substituted with alanine (FLAG-tagged at N-terminal) (human, UniProt O15123 281-496, limits assumed)
T3 chain: T1 chain with Y188A, A195N
Description: as §1, §2, §3

[4] = target: T4, mutant Ang-2 protein, D448 substituted with alanine (FLAG-tagged at N-terminal) (human, UniProt O15123 281-496, limits assumed)
T4 chain: T1 chain with D176A, A195N
Description: as §1, §2, §3

[5] = target: T5, mutant Ang-2 protein, K468 substituted with alanine (FLAG-tagged at N-terminal) (human, UniProt O15123 281-496, limits assumed)
T5 chain: T1 chain with A195N, K196A
Description: as §1, §2, §3

[6] = target: T6, mutant Ang-2 protein, P419 substituted with alanine (FLAG-tagged at N-terminal) (human, UniProt O15123 281-496, limits assumed)
T6 chain: T1 chain with P147A, A195N
Description: as §1, §2, §3

| Binder | % at RBD binding (mutant Ang-2 against native Ang-2) [1] | % at RBD binding (mutant Ang-2 against native Ang-2) [2] | % at RBD binding (mutant Ang-2 against native Ang-2) [3] | % at RBD binding (mutant Ang-2 against native Ang-2) [4] | % at RBD binding (mutant Ang-2 against native Ang-2) [5] | % at RBD binding (mutant Ang-2 against native Ang-2) [6] |
| --- | --- | --- | --- | --- | --- | --- |
| B1 | 95.1% | 102% | 100% | 96.1% | 105% | 8.7% |
| B2 | 96% | 90.1% | 98.7% | 96.9% | 101% | 88.6% |
